Laboratory results as given in US10738340B2, “Methods and materials for enzymatic synthesis of mogroside compounds” (EVOLVA SA, priority 2011, dated 2020).

Test: In vitro UGT screening: reactions of mogrol with a panel of 230 UGT enzymes, products analyzed with LC-MS
Format: biochemical
Conditions: for position of mogrol glycosylated by the UGT: aglycone mogrol as substrate, see FIG. 2; for product formed from mogrol substrate in the in vitro UGT reaction (LC-MS): partially purified UGT enzyme or crude enzyme extract
Protocol: In vitro reactions of mogrol with a panel of 230 UGT enzymes were performed and the products were analyzed with LC-MS. The in vitro UGT reaction mixtures included 4× Tris buffer, mogrol (250 μM), UDP-glucose (750 μM) and 1% alkaline phosphatase. Five μl of each partially purified UGT enzyme or crude enzyme extract was added to the reaction, and the reaction volume brought to 50 μl with water. The reactions were incubated overnight at 30° C. and performed in sterilized 96 well plates. After the incubation, 25 μL of DMSO were added into each reaction and the reaction plates were centrifuged for 5 min. Forty μL samples were taken from each well and filtered, and were used for LC-MS analysis.

[1] = mogrol 250 μM, UDP-glucose 750 μM, overnight at 30° C.

Molecule	position of mogrol glycosylated by the UGT	product formed from mogrol substrate in the in vitro UGT reaction (LC-MS) [1]	completeness of the mogrol glycosylation reaction [1]
UGT 73C6: UDP dependent glucosyltransferase from Arabidopsis thaliana, glycosyltransferase family I, SEQ ID NO:3 (protein, listed as Arabidopsis thaliana) MAFEKNNEPFPLHFVLFPFMAQGHMIPMVDIARLLAQRGVLITIVTTPHNAARFKNVLNRAIESGLPINLVQVKFPYQEAGLQEGQENMDLLTTMEQITSFFKAVNLLKEPVQNLIEEMSPRPSCLISDMCLSYTSEIAKKFKIPKILFHGMGCFCLLCVNVLRKNREILDNLKSDKEYFIVPYFPDRVEFTRPQVPVETYVPAGWKEILEDMVEADKTSYGVIVNSFQELEPAYAKDFKEARSGKAWTIGPVSLCNKVGVDKAERGNKSDIDQDECLEWLDSKEPGSVLYVCLGSICNLPLSQLLELGLGLEESQRPFIWVIRGWEKYKELVEWFSESGFEDRIQDRGLLIKGWSPQMLILSHPSVGGFLTHCGWNSTLEGITAGLPMLTWPLFADQFCNEKLVVQILKVGVSAEVKEVMKWGEEEKIGVLVDKEGVKKAVEELMGESDDAKERRRRAKELGESAHKAVEEGGSSHSNITFLLQDIMQLAQSNN	glycosylate at the C24-OH position	convert all the mogrol substrate to mogroside Ib	
UGT 85C2: UDP dependent glucosyltransferase from Stevia rebaudiana, glycosyltransferase family I, SEQ ID NO:5 (protein, listed as Stevia rebaudiana) MDAMATTEKKPHVIFIPFPAQSHIKAMLKLAQLLHHKGLQITFVNTDFIHNQFLESSGPHCLDGAPGFRFETIPDGVSHSPEASIPIRESLLRSIETNFLDRFIDLVTKLPDPPTCIISDGFLSVFTIDAAKKLGIPVMMYWTLAACGFMGFYHIHSLIEKGFAPLKDASYLTNGYLDTVIDWVPGMEGIRLKDFPLDWSTDLNDKVLMFTTEAPQRSHKVSHHIFHTFDELEPSIIKTLSLRYNHIYTIGPLQLLLDQIPEEKKQTGITSLHGYSLVKEEPECFQWLQSKEPNSVVYVNFGSTTVMSLEDMTEFGWGLANSNHYFLWIIRSNLVIGENAVLPPELEEHIKKRGFIASWCSQEKVLKHPSVGGFLTHCGWGSTIESLSAGVPMICWPYSWDQLTNCRYICKEWEVGLEMGTKVKRDEVKRLVQELMGEGGHKMRNKAKDWKEKARIAIAPNGSSSLNIDKMVKEITVLARN	glycosylate at the C24-OH position	convert all the mogrol substrate to mogroside Ib	
UGT 73C3: UDP dependent glucosyltransferase from Arabidopsis thaliana, glycosyltransferase family I, SEQ ID NO:1 (protein, listed as Arabidopsis thaliana) MATEKTHQFHPSLHFVLFPFMAQGHMIPMIDIARLLAQRGVTITIVTTPHNAARFKNVLNRAIESGLAINILHVKFPYQEFGLPEGKENIDSLDSTELMVPFFKAVNLLEDPVMKLMEEMKPRPSCLISDWCLPYTSIIAKNFNIPKIVFHGMGCFNLLCMHVLRRNLEILENVKSDEEYFLVPSFPDRVEFTKLQLPVKANASGDWKEIMDEMVKAEYTSYGVIVNTFQELEPPYVKDYKEAMDGKVWSIGPVSLCNKAGADKAERGSKAAIDQDECLQWLDSKEEGSVLYVCLGSICNLPLSQLKELGLGLEESRRSFIWVIRGSEKYKELFEWMLESGFEERIKERGLLIKGWAPQVLILSHPSVGGFLTHCGWNSTLEGITSGIPLITWPLFGDQFCNQKLVVQVLKAGVSAGVEEVMKWGEEDKIGVLVDKEGVKKAVEELMGDSDDAKERRRRVKELGELAHKAVEKGGSSHSNITLLLQDIMQLAQFKN	glycosylate at the C24-OH position	convert all the mogrol substrate to mogroside Ib	
UGT 73C5: UDP dependent glucosyltransferase from Arabidopsis thaliana, glycosyltransferase family I, SEQ ID NO:2 (protein, listed as Arabidopsis thaliana) MVSETTKSSPLHFVLFPFMAQGHMIPMVDIARLLAQRGVIITIVTTPHNAARFKNVLNRAIESGLPINLVQVKFPYLEAGLQEGQENIDSLDTMERMIPFFKAVNFLEEPVQKLIEEMNPRPSCLISDFCLPYTSKIAKKFNIPKILFHGMGCFCLLCMHVLRKNREILDNLKSDKELFTVPDFPDRVEFTRTQVPVETYVPAGDWKDIFDGMVEANETSYGVIVNSFQELEPAYAKDYKEVRSGKAWTIGPVSLCNKVGADKAERGNKSDIDQDECLKWLDSKKHGSVLYVCLGSICNLPLSQLKELGLGLEESQRPFIWVIRGWEKYKELVEWFSESGFEDRIQDRGLLIKGWSPQMLILSHPSVGGFLTHCGWNSTLEGITAGLPLLTWPLFADQFCNEKLVVEVLKAGVRSGVEQPMKWGEEEKIGVLVDKEGVKKAVEELMGESDDAKERRRRAKELGDSAHKAVEEGGSSHSNISFLLQDIMELAEPNN	glycosylates at both the C3-OH (UGT #1 in FIG. 2) and C24-OH position	makes both mogroside Ia and Ib	
UGT 73E1: UDP dependent glucosyltransferase from Stevia rebaudiana, glycosyltransferase family I, SEQ ID NO:4 (protein, listed as Stevia rebaudiana) MSPKMVAPPTNLHFVLFPLMAQGHLVPMVDIARILAQRGATVTIITTPYHANRVRPVISRAIATNLKIQLLELQLRSTEAGLPEGCESFDQLPSFEYWKNISTAIDLLQQPAEDLLRELSPPPDCIISDFLFPWTTDVARRLNIPRLVFNGPGCFYLLCIHVAITSNILGENEPVSSNTERVVLPGLPDRIEVTKLQIVGSSRPANVDEMGSWLRAVEAEKASFGIVVNTFEELEPEYVEEYKTVKDKKMWCIGPVSLCNKTGPDLAERGNKAAITEHNCLKWLDERKLGSVLYVCLGSLARISAAQAIELGLGLESINRPFIWCVRNETDELKTWFLDGFEERVRDRGLIVHGWAPQVLILSHPTIGGFLTHCGWNSTIESITAGVPMITWPFFADQFLNEAFIVEVLKIGVRIGVERACLFGEEDKVGVLVKKEDVKKAVECLMDEDEDGDQRRKRVIELAKMAKIAMAEGGSSYENVSSLIRDVTETVRAPH	glycosylate at the C24-OH position	mogroside Ib was found as the major product, together with a new glycosylated mogrol	the reaction was not complete
